The source of these data is patent publication US6083917.

Values joined by “and” are separate entries in the source; they are usually repeats but may differ in a detail not shown here. Equal entries are not always repeated. Where two headings read alike, the source gives them in different places. Bounds are passed on as bounds.

Assay [1] concerns the target rat brain protein farnesyltransferase (rat).
The target is the same in assay [2]. This is another data set of the same source.
The target is the same in assay [3]. The source holds these as a separate data set.
Assay [4] has the same target. This is another data set of the same source.
Assay [5] shares this target. This is another data set of the same source.
Assay [6] has the same target. The source holds these as a separate data set.
Assay [7] shares this target. This is another data set of the same source.
The target is the same in assay [8]. The source holds these as a separate data set.

In the case of CVFM (peptide), the Concentration for 50% Inhibition of Farnesylation of p21^H-ras in assay [1] was 0.06 µM and 0.032 µM and 0.09 µM. Besides, in assay [2], the affinity for the enzyme relative to CVIM (from 50% inhibition) was 6 fold and the half-maximal inhibition of farnesylation of p21^H-ras was 25 nM. In assay [3], the concentration giving 50% inhibition of farnesylation of p21^H-ras (FIG. 23A) was determined as 0.07 µM.

CSIM (peptide) registered a Concentration for 50% Inhibition (farnesylation of p21^H-ras) in assay [4] of 0.2 µM.

Consider CLLL (peptide), for which the Concentration for 50% Inhibition (farnesylation of p21^H-ras) in assay [4] came to 22 µM.

In turn, N-AcCVIM (peptide) returned a Concentration for 50% Inhibition of Farnesylation of p21^H-ras in assay [1] of 0.15 µM.

“CVIM with glutamic acid at the X position (peptide)” showed a Concentration for 50% Inhibition of Farnesylation of p21^H-ras in assay [5] of over 40 µM.

In turn, N-Octanoyl-CVFM (peptide) registered a Concentration for 50% Inhibition of Farnesylation of p21^H-ras in assay [1] of 0.35 µM.

Take CCVQ (peptide): the Concentration for 50% Inhibition (farnesylation of p21^H-ras) in assay [4] came out at 0.35 µM.

Consider CVIF (peptide), for which the Concentration for 50% Inhibition of Farnesylation of p21^H-ras in assay [5] came out at 0.5 µM.

The substance CCVFM (peptide) came in with a Concentration for 50% Inhibition of Farnesylation of p21^H-ras in assay [1] of 0.44 µM.

For the substance N-AcKCVFM (peptide), the Concentration for 50% Inhibition of Farnesylation of p21^H-ras in assay [1] turned out to be 0.3 µM.

CVIL (peptide) yielded a Concentration for 50% Inhibition of Farnesylation of p21^H-ras in assay [6] of 12 µM. The same substance gave a Concentration for 50% Inhibition (farnesylation of p21^H-ras) in assay [4] of 11 µM.

In turn, CEIM (peptide) yielded a Concentration for 50% Inhibition of Farnesylation of p21^H-ras in assay [7] of 1.5 µM.

Consider CVWM (peptide), for which the Concentration for 50% Inhibition of Farnesylation of p21^H-ras in assay [1] was 0.32 µM.

In assay [5], “CVIM with lysine at the X position (peptide)” had a Concentration for 50% Inhibition of Farnesylation of p21^H-ras of over 40 µM. Also, the affinity for the enzyme as estimated by the concentration required for 50% inhibition in assay [8] was over 30 fold.

The substance CKIM (peptide) came in with a Concentration for 50% Inhibition of Farnesylation of p21^H-ras in assay [7] of 0.7 µM.

As to “CVIM with glutamic acid at the A2 position (peptide)”, in assay [7], the affinity for the enzyme (from 50% inhibition) is over 50 fold.

In assay [4], CTVA (peptide) gave a Concentration for 50% Inhibition (farnesylation of p21^H-ras) of 30 µM.

N-AcCVFM (peptide): the Concentration for 50% Inhibition of Farnesylation of p21^H-ras in assay [1] is 0.25 µM. In addition, the concentration giving 50% inhibition of farnesylation of p21^H-ras (FIG. 23A) in assay [3] was 0.27 µM.

As to CVIM (peptide), in assay [1], the Concentration for 50% Inhibition of Farnesylation of p21^H-ras is 0.15 µM. This substance also showed a Concentration for 50% Inhibition (farnesylation of p21^H-ras) in assay [4] of 0.15 µM.

Regarding N-AcSCVFM (peptide), the Concentration for 50% Inhibition of Farnesylation of p21^H-ras in assay [1] worked out at 0.23 µM.

With “CVIM with glycine at the X position (peptide)”, in assay [5], the Concentration for 50% Inhibition of Farnesylation of p21^H-ras was over 40 µM.

As to CAIL (peptide), in assay [4], the Concentration for 50% Inhibition (farnesylation of p21^H-ras) was found to be 100 µM.

In assay [7], CVPM (peptide) returned a Concentration for 50% Inhibition of Farnesylation of p21^H-ras of 20 µM.

On to N-CholylCVFM (peptide), for which, in assay [1], the Concentration for 50% Inhibition of Farnesylation of p21^H-ras stood at 0.21 µM.

For N-AcCVWM (peptide), the Concentration for 50% Inhibition of Farnesylation of p21^H-ras in assay [1] is 3.7 µM.

The substance CIIM (peptide) registered a Concentration for 50% Inhibition (farnesylation of p21^H-ras) in assay [4] of 0.15 µM.

In assay [7], CPIM (peptide) returned a Concentration for 50% Inhibition of Farnesylation of p21^H-ras of 8 µM.

N-AcHCVFM (peptide) showed a Concentration for 50% Inhibition of Farnesylation of p21^H-ras in assay [1] of 0.24 µM.

Regarding CIIC (peptide), the Concentration for 50% Inhibition (farnesylation of p21^H-ras) in assay [4] came out at 0.35 µM.

CVIA (peptide): the Concentration for 50% Inhibition (farnesylation of p21^H-ras) in assay [4] is 5 µM. In addition, the affinity for the enzyme as estimated by the concentration required for 50% inhibition in assay [8] is over 30 fold.

The substance N-AcDCVFM (peptide) had a Concentration for 50% Inhibition of Farnesylation of p21^H-ras in assay [1] of 1.9 µM.

Take CVAM (peptide): in assay [8], the affinity for the enzyme as estimated by the concentration required for 50% inhibition is over 30 fold.

For CLIL (peptide), in assay [4], the Concentration for 50% Inhibition (farnesylation of p21^H-ras) turned out to be 17 µM.

In turn, CAIM (peptide) had a Concentration for 50% Inhibition (farnesylation of p21^H-ras) in assay [4] of 0.15 µM.

On to CVLM (peptide), for which the Concentration for 50% Inhibition (farnesylation of p21^H-ras) in assay [4] worked out at 0.15 µM.

CIKS (peptide): the Concentration for 50% Inhibition (farnesylation of p21^H-ras) in assay [4] is over 100 µM.

On to N-AcECVFM (peptide), for which the Concentration for 50% Inhibition of Farnesylation of p21^H-ras in assay [1] stood at 2.4 µM.

In assay [1], N-AcMCVFM (peptide) gave a Concentration for 50% Inhibition of Farnesylation of p21^H-ras of 1.4 µM.

As for CGIM (peptide), the Concentration for 50% Inhibition of Farnesylation of p21^H-ras in assay [7] stood at 4 µM.

N-AcPCVFM (peptide) had a Concentration for 50% Inhibition of Farnesylation of p21^H-ras in assay [1] of 0.2 µM.

With N-AcCCVFM (peptide), in assay [1], the Concentration for 50% Inhibition of Farnesylation of p21^H-ras was 0.11 µM.

In turn, “CVIM with lysine at the A2 position (peptide)” came in with an affinity for the enzyme (from 50% inhibition) in assay [7] of over 50 fold. For the same substance, the affinity for the enzyme as estimated by the concentration required for 50% inhibition in assay [8] is over 30 fold.

The substance CIIS (peptide) yielded a Concentration for 50% Inhibition (farnesylation of p21^H-ras) in assay [4] of 0.35 µM.

In the case of N-AcGCVFM (peptide), the Concentration for 50% Inhibition of Farnesylation of p21^H-ras in assay [1] amounted to 0.43 µM.

CVVM (peptide): in assay [4], the Concentration for 50% Inhibition (farnesylation of p21^H-ras) was found to be 0.15 µM.

For KCVFM (peptide), the Concentration for 50% Inhibition of Farnesylation of p21^H-ras in assay [1] amounted to 1.1 µM.

The substance CVLS (peptide) gave a Concentration for 50% Inhibition (farnesylation of p21^H-ras) in assay [4] of 3 µM.

On to CVIS (peptide), for which the Concentration for 50% Inhibition (farnesylation of p21^H-ras) in assay [4] came to 1 µM.

“CVIM with glycine at the A2 position (peptide)” had a Concentration for 50% Inhibition of Farnesylation of p21^H-ras in assay [7] of 8 µM.
